Data from patent US20250011397A1 (HOSPITAL FOR SICK CHILDREN, published 2025).
Several values for one entry are separate records, joined by “and”; a condition that tells them apart may be missing. Equal entries are not always repeated.

Columns and labels:
[1] = biological target: T1, SARS-CoV-2 Spike on HIV-based pseudotyped virus (Spike plasmid BEI NR52310) (SARS-CoV-2, UniProt P0DTC2 14-1273); assay: cell-based or functional assay
[2] = biological target: T1, SARS-CoV-2 Spike on HIV-based …; assay: cell-based or functional assay; remark: listed apart in the source

Binder | IC50 SARS-CoV2 PsV (µg/mL), MB [1] | Median IC50 (PsV neutralization) [2] | IC50 SARS-CoV2 PsV (µg/mL), IgG [1]
MB 160 (other) heavy: QVQLVQSGAEVKKPGASVKVSCKASGYTFTGHDMHWVRQAPGQGLEWMGIINPSGGSTSYAQKFQGRVTMTRDTSTSTVYMELSSLRSEDTAVYYCARANSLRYYYGMDVWGQGTMVTVSSASTKGPSVFPLAPSSKSTSGGTAALGCLVKDYFPEPVTVSWNSGALTSGVHTFPAVLQSSGLYSLSSVVTVPSSSLGTQTYICNVNHKPSNTKVDKKVEPKSC light: DIQMTQSPSSLSASVGDRVTITCRASQSVSSWLAWYQQKPGKAPKLLIYAASSLQSGVPSRFSGSGSGTDFTLTISSLQPEDFATYYCQQGYTTPYTFGQGTKLEIKRTVAAPSVFIFPPSDEQLKSGTASVVCLLNNFYPREAKVQWKVDNALQSGNSQESVTEQDSKDSTYSLSSTLTLSKADYEKHKVYACEVTHQGLSSPVTKSFNRGEC | 0.22 µg/mL | 0.22 µg/mL and 96 pM | –
MB 254 (other) heavy: EVQLLESGGGLVQPGGSLRLSCAASGFTFSSSAMHWVRQAPGKGLEWVSAIGTGGDTYYADSVKGRFTISRDNSKNTLYLQMNSLRAEDTAVYYCAREGDGYNFYFDYWGQGTLVTVSSASTKGPSVFPLAPSSKSTSGGTAALGCLVKDYFPEPVTVSWNSGALTSGVHTFPAVLQSSGLYSLSSVVTVPSSSLGTQTYICNVNHKPSNTKVDKKVEPKSC light: not shown | 9.3 µg/mL | 9.3 µg/mL and 4 nM | –
MB 108 (other) heavy: QVQLVQSGAEVKKPGASVKVSCKASGYIFSRYAIHWVRQAPGQGLEWMGWMNPISGNTDYAPNFQGRVTMTRDTSTSTVYMELSSLRSEDTAVYYCAKDGSQLAYLVEYFQHWGQGTLVTVSSASTKGPSVFPLAPSSKSTSGGTAALGCLVKDYFPEPVTVSWNSGALTSGVHTFPAVLQSSGLYSLSSVVTVPSSSLGTQTYICNVNHKPSNTKVDKKVEPKSC light: not shown | 0.37 µg/mL | 0.37 µg/mL and 161 pM | –
mAb 349 (antibody, V domains shown, also called IgG 349) VH: EVQLLESGGGLVQPGGSLRLSCAASGFTFSNYGMHWVRQAPGKGLEWVSGISSAGSITNYADSVKGRFTISRDNSKNTLYLQMNSLRAEDTAVYYCAGNHAGTTVTSEYFQHWGQGTLVTVSS VL: DIQMTQSPSSLSASVGDRVTITCRASQSISSWLAWYQQKPGKAPKLLIYDTSNLETGVPSRFSGSGSGTDFTLTISSLQPEDFATYYCQQSYTTPWTFGQGTRLEIKR | – | > 50 µg/mL and > 333 nM | > 50 µg/mL
mAb 160 (antibody, V domains shown, also called IgG 160) VH: QVQLVQSGAEVKKPGASVKVSCKASGYTFTGHDMHWVRQAPGQGLEWMGIINPSGGSTSYAQKFQGRVTMTRDTSTSTVYMELSSLRSEDTAVYYCARANSLRYYYGMDVWGQGTMVTVSS VL: DIQMTQSPSSLSASVGDRVTITCRASQSVSSWLAWYQQKPGKAPKLLIYAASSLQSGVPSRFSGSGSGTDFTLTISSLQPEDFATYYCQQGYTTPYTFGQGTKLEIKR | – | > 50 µg/mL and > 333 nM | > 50 µg/mL
mAb 108 (antibody, V domains shown) VH: QVQLVQSGAEVKKPGASVKVSCKASGYIFSRYAIHWVRQAPGQGLEWMGWMNPISGNTDYAPNFQGRVTMTRDTSTSTVYMELSSLRSEDTAVYYCAKDGSQLAYLVEYFQHWGQGTLVTVSS VL: DIQMTQSPSSLSASVGDRVTITCRASQVITNNLAWYQQKPGKAPKLLIYDASTLETGVPSRFSGSGSGTDFTLTISSLQPEDFATYYCQQSYTFPYTFGQGTKVEIKR | – | > 50 µg/mL and > 333 nM | > 50 µg/mL
mAb 128 (antibody, V domains shown) VH: QVQLVQSGAEVKKPGASVKVSCKASGYTFTHYYMHWVRQAPGQGLEWMGIINPSSSSASYSQKFQGRVTMTRDTSTSTVYMELSSLRSEDTAVYYCARDGRYGSGSYPFDYWGQGTLVTVSS VL: DIQMTQSPSSLSASVGDRVTITCRASQNISRYLNWYQQKPGKAPKLLIYDASNLETGVPSRFSGSGSGTDFTLTISSLQPEDFATYYCQQANGFPPTFGQGTKLEIKR | – | > 50 µg/mL and > 333 nM | > 50 µg/mL
mAb 56 (antibody, V domains shown, also called IgG 56) VH: QVQLVQSGAEVKKPGASVKVSCKASGYTFTSYGISWVRQAPGQGLEWMGWISAYNGNTNYAQKLQGRVTMTRDTSTSTVYMELSSLRSEDTAVYYCARDIGPIDYWGQGTLVTVSS VL: DIQMTQSPSSLSASVGDRVTITCRASQGISSYLAWYQQKPGKAPKLLIYDASNLQSGVPSRFSGSGSGTDFTLTISSLQPEDFATYYCQQANSFPSTFGQGTKVEIKR | – | > 50 µg/mL and > 333 nM | > 50 µg/mL
mAb 178 (antibody, V domains shown, also called IgG 178) VH: QVQLVQSGAEVKKPGASVKVSCKASGYTFTDYHMHWVRQAPGQGLEWMGWINPNSGGTNYAQKFQGRVTMTRDTSTSTVYMELSSLRSEDTAVYYCARDISSWYEITKFDPWGQGTLVTVSS VL: EIVMTQSPATLSVSPGERATLSCKASQSVSGTYLAWYQQKPGQAPRLLIYGASTRATGIPARFSGSGSGTEFTLTISSLQSEDFAVYYCLQTHSYPPTFGQGTKVEIKR | – | > 50 µg/mL and > 333 nM | > 50 µg/mL
MB 158 (other) heavy: QVQLVQSGAEVKKPGASVKVSCKASGYTFTGYYMHWVRQAPGQGLEWMGWINPLNGGTNFAPKFQGRVTMTRDTSTSTVYMELSSLRSEDTAVYYCARDPGGSYSNDAFDIWGQGTLVTVSSASTKGPSVFPLAPSSKSTSGGTAALGCLVKDYFPEPVTVSWNSGALTSGVHTFPAVLQSSGLYSLSSVVTVPSSSLGTQTYICNVNHKPSNTKVDKKVEPKSC light: not shown | 0.1 µg/mL | 0.1 µg/mL and 43 pM | –
MB 192 (other) heavy: not shown light: DIVMTQSPLSLPVTPGEPASISCRSSQSLLHSNGYNYLDWYLQKPGQSPQLLIYAASSLQSGVPDRFSGSGSGTDFTLKISRVEAEDVGVYYCMQALQTPYTFGQGTKLEIKRTVAAPSVFIFPPSDEQLKSGTASVVCLLNNFYPREAKVQWKVDNALQSGNSQESVTEQDSKDSTYSLSSTLTLSKADYEKHKVYACEVTHQGLSSPVTKSFNRGEC | 0.79 µg/mL | 0.79 µg/mL and 343 pM | –
MB 180 (other) heavy: QVQLVQSGAEVKKPGSSVKVSCKASGYTFTSYAMHWVRQAPGQGLEWMGRISPRSGGTKYAQRFQGRVTITADESTSTAYMELSSLRSEDTAVYYCAREAVAGTHPQAGDFDLWGRGTLVTVSSASTKGPSVFPLAPSSKSTSGGTAALGCLVKDYFPEPVTVSWNSGALTSGVHTFPAVLQSSGLYSLSSVVTVPSSSLGTQTYICNVNHKPSNTKVDKKVEPKSC light: DIVMTQSPLSLPVTPGEPASISCRSSQSLLHSNGYNYLDWYLQKPGQSPQLLIYAASSLQSGVPDRFSGSGSGTDFTLKISRVEAEDVGVYYCQQYYSSPYTFGQGTKLEIKRTVAAPSVFIFPPSDEQLKSGTASVVCLLNNFYPREAKVQWKVDNALQSGNSQESVTEQDSKDSTYSLSSTLTLSKADYEKHKVYACEVTHQGLSSPVTKSFNRGEC | 0.89 µg/mL | 0.89 µg/mL and 387 pM | –
MB 349 (other) heavy: EVQLLESGGGLVQPGGSLRLSCAASGFTFSNYGMHWVRQAPGKGLEWVSGISSAGSITNYADSVKGRFTISRDNSKNTLYLQMNSLRAEDTAVYYCAGNHAGTTVTSEYFQHWGQGTLVTVSSASTKGPSVFPLAPSSKSTSGGTAALGCLVKDYFPEPVTVSWNSGALTSGVHTFPAVLQSSGLYSLSSVVTVPSSSLGTQTYICNVNHKPSNTKVDKKVEPKSC light: not shown | > 50 µg/mL | > 50 µg/mL and > 0.33 µM | –
MB 120 (other) heavy: QVQLVQSGAEVKKPGASVKVSCKASGYTFTSYDINWVRQAPGQGLEWMGMIDPSGGSTSYAQKFQGRVTMTRDTSTSTVYMELSSLRSEDTAVYYCAKDFGGGTRYDYWYFDLWGRGTLVTVSSASTKGPSVFPLAPSSKSTSGGTAALGCLVKDYFPEPVTVSWNSGALTSGVHTFPAVLQSSGLYSLSSVVTVPSSSLGTQTYICNVNHKPSNTKVDKKVEPKSC light: not shown | 7.2 µg/mL | 7.2 µg/mL and 3.1 nM | –
MB 128 (other) heavy: QVQLVQSGAEVKKPGASVKVSCKASGYTFTHYYMHWVRQAPGQGLEWMGIINPSSSSASYSQKFQGRVTMTRDTSTSTVYMELSSLRSEDTAVYYCARDGRYGSGSYPFDYWGQGTLVTVSSASTKGPSVFPLAPSSKSTSGGTAALGCLVKDYFPEPVTVSWNSGALTSGVHTFPAVLQSSGLYSLSSVVTVPSSSLGTQTYICNVNHKPSNTKVDKKVEPKSC light: not shown | 3.5 µg/mL | 1.5 nM and 3.5 µg/mL | –
MB 56 (other) heavy: QVQLVQSGAEVKKPGASVKVSCKASGYTFTSYGISWVRQAPGQGLEWMGWISAYNGNTNYAQKLQGRVTMTRDTSTSTVYMELSSLRSEDTAVYYCARDIGPIDYWGQGTLVTVSSASTKGPSVFPLAPSSKSTSGGTAALGCLVKDYFPEPVTVSWNSGALTSGVHTFPAVLQSSGLYSLSSVVTVPSSSLGTQTYICNVNHKPSNTKVDKKVEPKSC light: not shown | > 50 µg/mL | > 50 µg/mL and > 0.33 µM | –
MB 178 (other) heavy: QVQLVQSGAEVKKPGASVKVSCKASGYTFTDYHMHWVRQAPGQGLEWMGWINPNSGGTNYAQKFQGRVTMTRDTSTSTVYMELSSLRSEDTAVYYCARDISSWYEITKFDPWGQGTLVTVSSASTKGPSVFPLAPSSKSTSGGTAALGCLVKDYFPEPVTVSWNSGALTSGVHTFPAVLQSSGLYSLSSVVTVPSSSLGTQTYICNVNHKPSNTKVDKKVEPKSC light: not shown | 1.7 µg/mL | 1.7 µg/mL and 0.74 nM | –
